Starred links: 1 amine or outer side, 2 acyl side, 3 side chain; linkers in the order of their positions; H or OH if unused. Non-standard residues stand in square brackets, D forms with d. Groups on a side chain read outwards from the residue. No end group written: not given here. *: point of attachment. C20 diacid = O=C(O)CCCCCCCCCCCCCCCCCCC(=O)*; C18 diacid = O=C(O)CCCCCCCCCCCCCCCCC(=O)*; γGlu = O=C(O)[C@H](CCC(=O)[*:2])N[*:1]; αMeF = C[C@](N)(Cc1ccccc1)C(=O)O; AEEA = NCCOCCOCC(=O)O; Aib = CC(C)(N)C(=O)O
B1: Peptide 504 (peptide)
peptide: H[Aib]QGTFTSDVSK[αMeF]LESK([AEEA-AEEA-γGlu-C20 diacid])RAQDFVRWLLE[Aib]K-OH
modifications: N-terminus assumed
SMILES: CC(C)C[C@H](NC(=O)[C@H](Cc1c[nH]c2ccccc12)NC(=O)[C@H](CCCNC(=N)N)NC(=O)[C@@H](NC(=O)[C@H](Cc1ccccc1)NC(=O)[C@H](CC(=O)O)NC(=O)[C@H](CCC(N)=O)NC(=O)[C@H](C)NC(=O)[C@H](CCCNC(=N)N)NC(=O)[C@H](CCCCNC(=O)COCCOCCNC(=O)COCCOCCNC(=O)CC[C@H](NC(=O)CCCCCCCCCCCCCCCCCCC(=O)O)C(=O)O)NC(=O)[C@H](CO)NC(=O)[C@H](CCC(=O)O)NC(=O)[C@H](CC(C)C)NC(=O)[C@](C)(Cc1ccccc1)NC(=O)[C@H](CCCCN)NC(=O)[C@H](CO)NC(=O)[C@@H](NC(=O)[C@H](CC(=O)O)NC(=O)[C@H](CO)NC(=O)[C@@H](NC(=O)[C@H](Cc1ccccc1)NC(=O)[C@@H](NC(=O)CNC(=O)[C@H](CCC(N)=O)NC(=O)C(C)(C)NC(=O)[C@@H](N)Cc1c[nH]cn1)[C@@H](C)O)[C@@H](C)O)C(C)C)C(C)C)C(=O)N[C@@H](CC(C)C)C(=O)N[C@@H](CCC(=O)O)C(=O)NC(C)(C)C(=O)N[C@@H](CCCCN)C(=O)O
B2: Peptide 500 (peptide)
peptide: H[Aib]QGTFTSDVSK[αMeF]LDTK([AEEA-AEEA-γGlu-C20 diacid])RAQDFVQWLLR[Aib]A-OH
modifications: N-terminus assumed
SMILES: CC(C)C[C@H](NC(=O)[C@H](Cc1c[nH]c2ccccc12)NC(=O)[C@H](CCC(N)=O)NC(=O)[C@@H](NC(=O)[C@H](Cc1ccccc1)NC(=O)[C@H](CC(=O)O)NC(=O)[C@H](CCC(N)=O)NC(=O)[C@H](C)NC(=O)[C@H](CCCNC(=N)N)NC(=O)[C@H](CCCCNC(=O)COCCOCCNC(=O)COCCOCCNC(=O)CC[C@H](NC(=O)CCCCCCCCCCCCCCCCCCC(=O)O)C(=O)O)NC(=O)[C@@H](NC(=O)[C@H](CC(=O)O)NC(=O)[C@H](CC(C)C)NC(=O)[C@](C)(Cc1ccccc1)NC(=O)[C@H](CCCCN)NC(=O)[C@H](CO)NC(=O)[C@@H](NC(=O)[C@H](CC(=O)O)NC(=O)[C@H](CO)NC(=O)[C@@H](NC(=O)[C@H](Cc1ccccc1)NC(=O)[C@@H](NC(=O)CNC(=O)[C@H](CCC(N)=O)NC(=O)C(C)(C)NC(=O)[C@@H](N)Cc1c[nH]cn1)[C@@H](C)O)[C@@H](C)O)C(C)C)[C@@H](C)O)C(C)C)C(=O)N[C@@H](CC(C)C)C(=O)N[C@@H](CCCNC(=N)N)C(=O)NC(C)(C)C(=O)N[C@@H](C)C(=O)O
B3: Peptide 508 (peptide)
peptide: H[Aib]QGTFTSDVSK[αMeF]LESK([AEEA-AEEA-γGlu-C20 diacid])RAQDFVRWLVE[Aib]G-NH2
modifications: N-terminus assumed
SMILES: CC(C)C[C@H](NC(=O)[C@H](Cc1c[nH]c2ccccc12)NC(=O)[C@H](CCCNC(=N)N)NC(=O)[C@@H](NC(=O)[C@H](Cc1ccccc1)NC(=O)[C@H](CC(=O)O)NC(=O)[C@H](CCC(N)=O)NC(=O)[C@H](C)NC(=O)[C@H](CCCNC(=N)N)NC(=O)[C@H](CCCCNC(=O)COCCOCCNC(=O)COCCOCCNC(=O)CC[C@H](NC(=O)CCCCCCCCCCCCCCCCCCC(=O)O)C(=O)O)NC(=O)[C@H](CO)NC(=O)[C@H](CCC(=O)O)NC(=O)[C@H](CC(C)C)NC(=O)[C@](C)(Cc1ccccc1)NC(=O)[C@H](CCCCN)NC(=O)[C@H](CO)NC(=O)[C@@H](NC(=O)[C@H](CC(=O)O)NC(=O)[C@H](CO)NC(=O)[C@@H](NC(=O)[C@H](Cc1ccccc1)NC(=O)[C@@H](NC(=O)CNC(=O)[C@H](CCC(N)=O)NC(=O)C(C)(C)NC(=O)[C@@H](N)Cc1c[nH]cn1)[C@@H](C)O)[C@@H](C)O)C(C)C)C(C)C)C(=O)N[C@H](C(=O)N[C@@H](CCC(=O)O)C(=O)NC(C)(C)C(=O)NCC(N)=O)C(C)C
B4: Peptide 501 (peptide)
peptide: H[Aib]QGTFTSDVSK[αMeF]LDTK([AEEA-AEEA-γGlu-C18 diacid])RARDFVQWLLR[Aib]A-OH
modifications: N-terminus assumed
SMILES: CC(C)C[C@H](NC(=O)[C@H](Cc1c[nH]c2ccccc12)NC(=O)[C@H](CCC(N)=O)NC(=O)[C@@H](NC(=O)[C@H](Cc1ccccc1)NC(=O)[C@H](CC(=O)O)NC(=O)[C@H](CCCNC(=N)N)NC(=O)[C@H](C)NC(=O)[C@H](CCCNC(=N)N)NC(=O)[C@H](CCCCNC(=O)COCCOCCNC(=O)COCCOCCNC(=O)CC[C@H](NC(=O)CCCCCCCCCCCCCCCCC(=O)O)C(=O)O)NC(=O)[C@@H](NC(=O)[C@H](CC(=O)O)NC(=O)[C@H](CC(C)C)NC(=O)[C@](C)(Cc1ccccc1)NC(=O)[C@H](CCCCN)NC(=O)[C@H](CO)NC(=O)[C@@H](NC(=O)[C@H](CC(=O)O)NC(=O)[C@H](CO)NC(=O)[C@@H](NC(=O)[C@H](Cc1ccccc1)NC(=O)[C@@H](NC(=O)CNC(=O)[C@H](CCC(N)=O)NC(=O)C(C)(C)NC(=O)[C@@H](N)Cc1c[nH]cn1)[C@@H](C)O)[C@@H](C)O)C(C)C)[C@@H](C)O)C(C)C)C(=O)N[C@@H](CC(C)C)C(=O)N[C@@H](CCCNC(=N)N)C(=O)NC(C)(C)C(=O)N[C@@H](C)C(=O)O
B5: Peptide 505 (peptide)
peptide: H[Aib]QGTFTSDVSK[αMeF]LDTK([AEEA-AEEA-γGlu-C20 diacid])RAQDFVQWLLE[Aib]K-NH2
modifications: N-terminus assumed
SMILES: CC(C)C[C@H](NC(=O)[C@H](Cc1c[nH]c2ccccc12)NC(=O)[C@H](CCC(N)=O)NC(=O)[C@@H](NC(=O)[C@H](Cc1ccccc1)NC(=O)[C@H](CC(=O)O)NC(=O)[C@H](CCC(N)=O)NC(=O)[C@H](C)NC(=O)[C@H](CCCNC(=N)N)NC(=O)[C@H](CCCCNC(=O)COCCOCCNC(=O)COCCOCCNC(=O)CC[C@H](NC(=O)CCCCCCCCCCCCCCCCCCC(=O)O)C(=O)O)NC(=O)[C@@H](NC(=O)[C@H](CC(=O)O)NC(=O)[C@H](CC(C)C)NC(=O)[C@](C)(Cc1ccccc1)NC(=O)[C@H](CCCCN)NC(=O)[C@H](CO)NC(=O)[C@@H](NC(=O)[C@H](CC(=O)O)NC(=O)[C@H](CO)NC(=O)[C@@H](NC(=O)[C@H](Cc1ccccc1)NC(=O)[C@@H](NC(=O)CNC(=O)[C@H](CCC(N)=O)NC(=O)C(C)(C)NC(=O)[C@@H](N)Cc1c[nH]cn1)[C@@H](C)O)[C@@H](C)O)C(C)C)[C@@H](C)O)C(C)C)C(=O)N[C@@H](CC(C)C)C(=O)N[C@@H](CCC(=O)O)C(=O)NC(C)(C)C(=O)N[C@@H](CCCCN)C(N)=O
B6: Peptide 506 (peptide)
peptide: H[Aib]QGTFTSDVSK[αMeF]LDTK([AEEA-AEEA-γGlu-C20 diacid])RARDFVAWLLE[Aib]G-OH
modifications: N-terminus assumed
SMILES: CC(C)C[C@H](NC(=O)[C@H](Cc1c[nH]c2ccccc12)NC(=O)[C@H](C)NC(=O)[C@@H](NC(=O)[C@H](Cc1ccccc1)NC(=O)[C@H](CC(=O)O)NC(=O)[C@H](CCCNC(=N)N)NC(=O)[C@H](C)NC(=O)[C@H](CCCNC(=N)N)NC(=O)[C@H](CCCCNC(=O)COCCOCCNC(=O)COCCOCCNC(=O)CC[C@H](NC(=O)CCCCCCCCCCCCCCCCCCC(=O)O)C(=O)O)NC(=O)[C@@H](NC(=O)[C@H](CC(=O)O)NC(=O)[C@H](CC(C)C)NC(=O)[C@](C)(Cc1ccccc1)NC(=O)[C@H](CCCCN)NC(=O)[C@H](CO)NC(=O)[C@@H](NC(=O)[C@H](CC(=O)O)NC(=O)[C@H](CO)NC(=O)[C@@H](NC(=O)[C@H](Cc1ccccc1)NC(=O)[C@@H](NC(=O)CNC(=O)[C@H](CCC(N)=O)NC(=O)C(C)(C)NC(=O)[C@@H](N)Cc1c[nH]cn1)[C@@H](C)O)[C@@H](C)O)C(C)C)[C@@H](C)O)C(C)C)C(=O)N[C@@H](CC(C)C)C(=O)N[C@@H](CCC(=O)O)C(=O)NC(C)(C)C(=O)NCC(=O)O
B7: Peptide 502 (peptide)
peptide: H[Aib]QGTFTSDVSK[αMeF]LDTK([AEEA-AEEA-γGlu-C20 diacid])RARDFVQWLLR[Aib]A-OH
modifications: N-terminus assumed
SMILES: CC(C)C[C@H](NC(=O)[C@H](Cc1c[nH]c2ccccc12)NC(=O)[C@H](CCC(N)=O)NC(=O)[C@@H](NC(=O)[C@H](Cc1ccccc1)NC(=O)[C@H](CC(=O)O)NC(=O)[C@H](CCCNC(=N)N)NC(=O)[C@H](C)NC(=O)[C@H](CCCNC(=N)N)NC(=O)[C@H](CCCCNC(=O)COCCOCCNC(=O)COCCOCCNC(=O)CC[C@H](NC(=O)CCCCCCCCCCCCCCCCCCC(=O)O)C(=O)O)NC(=O)[C@@H](NC(=O)[C@H](CC(=O)O)NC(=O)[C@H](CC(C)C)NC(=O)[C@](C)(Cc1ccccc1)NC(=O)[C@H](CCCCN)NC(=O)[C@H](CO)NC(=O)[C@@H](NC(=O)[C@H](CC(=O)O)NC(=O)[C@H](CO)NC(=O)[C@@H](NC(=O)[C@H](Cc1ccccc1)NC(=O)[C@@H](NC(=O)CNC(=O)[C@H](CCC(N)=O)NC(=O)C(C)(C)NC(=O)[C@@H](N)Cc1c[nH]cn1)[C@@H](C)O)[C@@H](C)O)C(C)C)[C@@H](C)O)C(C)C)C(=O)N[C@@H](CC(C)C)C(=O)N[C@@H](CCCNC(=N)N)C(=O)NC(C)(C)C(=O)N[C@@H](C)C(=O)O

These binders were tested against human GLP-1 receptor (human, UniProt P43220) (assay: cell-based or functional assay).

| cAMP production EC50 [pM] | Binder |
| --- | --- |
| 124 | B1 |
| 81.2 | H[Aib]QGTFTSDVSK[αMeF]LDTK([AEEA-AEEA-γGlu-C20 diacid])RAQDFVRWLLE[Aib]K-OH [Peptide 503] |
| 102 | B2 |
| 67.9 | B3 |
| 26.5 | B4 |
| 52.9 | H[Aib]QGTFTSDVSK[αMeF]LDTK([AEEA-AEEA-γGlu-C20 diacid])RARDFVAWLLE[Aib]G-NH2 [Peptide 507] |
| 42.1 | B5 |
| 162 | B6 |
| 82.1 | B7 |

Each binder was assayed against human glucagon receptor (human, UniProt P47871) (assay: cell-based or functional assay).

| cAMP production EC50 [pM] | Binder |
| --- | --- |
| 551 | B1 |
| 84.9 | H[Aib]QGTFTSDVSK[αMeF]LDTK([AEEA-AEEA-γGlu-C20 diacid])RAQDFVRWLLE[Aib]K-OH [Peptide 503] |
| 101 | B2 |
| 2800 | B3 |
| 75.6 | B4 |
| 86.6 | H[Aib]QGTFTSDVSK[αMeF]LDTK([AEEA-AEEA-γGlu-C20 diacid])RARDFVAWLLE[Aib]G-NH2 [Peptide 507] |
| 191 | B5 |
| 149 | B6 |
| 175 | B7 |
